Earlier results on one substance are cited in paper PMC2783455.

The data set deals with Calmodulin (UniProt P0DP23).

As to CyaA (from UniProt J7QLC0), the Kd was 0.2 nM.
